Laboratory results as given in paper PMC6327041 (Nature Communications, 2019).

Molecular target: T1, KDM5A1-797 (Homo sapiens, UniProt P29375)
T1 construct: KDM5A1-797 was cloned into a pFASTBAC HTA vector; His (N, cleaved yes); made in house; host or cells: Sf21 insect cells (baculovirus)
T1 sequence (P29375 1-797): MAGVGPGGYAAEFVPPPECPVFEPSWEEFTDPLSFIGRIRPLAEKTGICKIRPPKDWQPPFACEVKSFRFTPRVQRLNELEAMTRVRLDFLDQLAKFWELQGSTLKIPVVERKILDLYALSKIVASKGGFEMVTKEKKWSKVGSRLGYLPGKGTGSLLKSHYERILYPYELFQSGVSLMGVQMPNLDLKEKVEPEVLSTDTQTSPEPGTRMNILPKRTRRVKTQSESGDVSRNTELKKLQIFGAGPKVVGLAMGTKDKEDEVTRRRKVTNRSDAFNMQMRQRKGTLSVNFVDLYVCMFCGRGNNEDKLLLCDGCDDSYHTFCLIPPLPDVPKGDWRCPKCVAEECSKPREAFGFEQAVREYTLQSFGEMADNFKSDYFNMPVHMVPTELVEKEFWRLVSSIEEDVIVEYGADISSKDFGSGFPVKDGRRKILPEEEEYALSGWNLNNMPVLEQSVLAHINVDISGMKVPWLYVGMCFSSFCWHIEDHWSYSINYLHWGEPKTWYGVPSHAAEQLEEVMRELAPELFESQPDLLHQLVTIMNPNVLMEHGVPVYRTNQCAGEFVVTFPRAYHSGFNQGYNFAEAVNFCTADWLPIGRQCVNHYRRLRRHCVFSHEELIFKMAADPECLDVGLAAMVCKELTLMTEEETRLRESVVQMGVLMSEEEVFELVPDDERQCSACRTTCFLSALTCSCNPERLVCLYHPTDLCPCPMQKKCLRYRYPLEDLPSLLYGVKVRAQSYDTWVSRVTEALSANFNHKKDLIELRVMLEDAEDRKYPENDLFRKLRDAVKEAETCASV
Assay: HDX-MS of KDM5A with peptides
Experimental: Solution-phase amide HDX experiments were carried out with a fully automated system (CTC HTS PAL, LEAP Technologies, Carrboro, NC; housed inside a 4 °C cabinet).
Peptides were identified using tandem MS (MS^2 or MS/MS) experiments performed with a LTQ linear ion trap mass spectrometer (LTQ Orbitrap XL with ETD, Thermo Fisher, San Jose, CA) over a 70 min gradient. Product ion spectra were acquired in a data-dependent mode and the five most abundant ions were selected for the product ion analysis per scan event. The MS/MS *.raw data files were converted to *.mgf files and then submitted to MASCOT ver2.3 (Matrix Science, London, UK) for peptide identification. […]
For differential HDX experiments, 5 μl of 20 μM KDM5A1-797 was diluted to 25 μl with D2O-containing HDX buffer (40 mM HEPES, 50 mM KCl, pH 7.9) and incubated at 4 °C for 10, 30, 60, 900, and 3600 s. […] Percent deuterium exchange values for peptide isotopic envelopes at each time point were calculated and processed using HDX Workbench. […] The intensity weighted mean m/z centroid value of each peptide envelope was calculated and subsequently converted into a percentage of deuterium incorporation. Statistical significance for the differential HDX data is determined by an unpaired t-test for each time point, a procedure that is integrated into the HDX Workbench software. […]

Row | Substance | perturbation of deuterium uptake (Ac-H3K4me3 21mer alone (500 µM) vs apo, 4 °C, triplicate) | deuterium exchange of PHD1 residues Gly300-Ala342, both peptides (H3 10mer (100 µM) and Ac-H3K4me3 21mer (500 µM) both present vs apo)
1 | Ac-H3K4me3 21mer: N-terminally acetylated 21mer H3K4me3 peptide, catalytic domain substrate | no perturbations are observed | –
2 | H3: unmodified N-terminal H3 tail 10mer peptide (H3 Ala1-Ser10), PHD1 effector ligand | – | increased protection observed in the PHD1 domain
